Patent US20240100133A1, “ENZYMATICALLY INACTIVE GRANZYME A AND USES THEREFORE” (Saint Louis University, priority 2022, published 2024)
Where two headings read alike, the source gives them in different places.

How the values were obtained:
[1] = system: mycobacteria within iMac-WT mouse cells; type: cell-based; conditions: human GzmA on mouse iMac-WT cells
[2] = system: Connaught BCG within primary CD14+ human monocytes; type: cell-based; conditions: for inhibition of intracellular mycobacterial replication (MGIA): 72 h
[3] = system: LAMP1 (phagolysosome fusion); test: Confocal microscopy colocalization of BCG-GFP and LAMP1; type: cell-based, human; conditions: compared with untreated controls
Description: Confocal microscopy and Stimulation Emission Depletion (STED) experiments. For confocal and STED microscopy experiments, cells were incubated on coverslips pre-treated with Cell-Tak (Corning #354240). At the time of fixation, cells were washed twice with 1×RT PBS, and then fixed in 4% paraformaldehyde for 15 min at 37° C. Slides were washed thrice for 5 min at RT with 1×PBS, and then blocked with 5% donkey serum (Cat. #017-000-121, Jackson ImmunoResearch, West Grove, PA) with 0.25% Tween-20 (Cat. #P9416, Sigma, St. Louis, MO) and True Stain Fc blocker (added only during blocking step) (Cat. #426101, Biolegend, San Diego, CA). Cells were then incubated overnight at 4° C. with primary antibody anti-GzmA (Cat. #MAB29051, R&D, Minneapolis, MN) at 12.5 μg/mL in blocking buffer, anti-PDIA1 (Cat. #MAB4236, R&D, Minneapolis, MN) at 12.5 μg/mL in blocking buffer, anti-LAMP1 at 12.5 ug/ml (Cat. #MAB4800, R&D, Minneapolis, MN), or anti-ATPSH (Cat. #ab110275, Abcam, Cambridge, UK) at 5 μg/mL in blocking buffer. To remove unbound antibody, cells were washed four times with 1×PBS at RT, and then incubated in the dark for 2 h with secondary antibody conjugated with Alexa Fluor 594 (Cat. #715-545-150, Jackson Immunoresearch, West Grove, PA) at 1:100 or Atto 647N (Cat. #ASR3248, Abcepta, San Diego, Ca) at 1:100. […]

CD14 = molecular target: T1, CD14 (Homo sapiens, UniProt P08571); test: Immunoprecipitation with anti-GzmA, probed for CD14; conditions: human monocyte lysates, infected and uninfected cells
T1 sequence (P08571 20-345): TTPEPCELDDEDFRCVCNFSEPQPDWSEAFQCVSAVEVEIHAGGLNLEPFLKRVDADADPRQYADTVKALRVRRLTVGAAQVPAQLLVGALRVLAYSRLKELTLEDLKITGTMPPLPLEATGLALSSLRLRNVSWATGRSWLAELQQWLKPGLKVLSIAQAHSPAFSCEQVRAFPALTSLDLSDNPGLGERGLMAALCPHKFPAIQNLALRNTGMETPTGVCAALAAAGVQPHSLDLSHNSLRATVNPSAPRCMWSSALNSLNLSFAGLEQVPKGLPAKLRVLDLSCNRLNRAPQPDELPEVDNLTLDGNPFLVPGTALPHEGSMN

mycobacteria BCG-GFP = type: binding
[4] = system: Mtb H37Rv within primary CD14+ human monocytes; type: cell-based, Mycobacterium tuberculosis; conditions: 200 nM GzmA, Mtb MOI 1, human monocytes
TLR4 = TLR4 (Homo sapiens, UniProt O00206); test: Immunoprecipitation with anti-GzmA, probed for TLR4; conditions: human monocyte lysates, infected and uninfected cells
TLR4, sequence (O00206 24-839): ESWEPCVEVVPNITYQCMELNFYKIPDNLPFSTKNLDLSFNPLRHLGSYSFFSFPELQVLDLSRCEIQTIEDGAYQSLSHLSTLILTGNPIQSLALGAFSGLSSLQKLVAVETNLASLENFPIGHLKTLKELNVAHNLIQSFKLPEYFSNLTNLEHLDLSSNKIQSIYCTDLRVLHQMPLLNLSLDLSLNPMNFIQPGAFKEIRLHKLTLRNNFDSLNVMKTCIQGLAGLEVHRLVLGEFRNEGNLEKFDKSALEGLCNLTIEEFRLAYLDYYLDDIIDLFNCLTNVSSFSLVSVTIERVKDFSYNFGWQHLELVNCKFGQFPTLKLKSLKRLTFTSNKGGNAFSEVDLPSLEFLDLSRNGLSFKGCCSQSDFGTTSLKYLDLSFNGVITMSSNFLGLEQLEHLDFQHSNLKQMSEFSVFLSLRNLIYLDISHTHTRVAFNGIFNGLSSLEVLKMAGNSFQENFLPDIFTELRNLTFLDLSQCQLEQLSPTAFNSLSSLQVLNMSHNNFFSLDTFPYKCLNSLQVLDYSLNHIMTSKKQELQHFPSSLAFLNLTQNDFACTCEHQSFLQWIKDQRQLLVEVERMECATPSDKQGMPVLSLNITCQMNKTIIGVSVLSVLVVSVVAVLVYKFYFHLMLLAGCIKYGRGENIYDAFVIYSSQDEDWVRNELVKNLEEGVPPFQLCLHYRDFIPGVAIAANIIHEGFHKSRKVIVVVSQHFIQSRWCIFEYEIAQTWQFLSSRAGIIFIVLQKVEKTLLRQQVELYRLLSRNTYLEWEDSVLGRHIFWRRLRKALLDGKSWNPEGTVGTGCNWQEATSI

[5] = BLT esterase assay for GzmA enzyme activity; type: biochemical; conditions: 120 pM protein; substrate BLT
Description: BLT esterase protocol for measuring GzmA enzyme activity. BLT esterase assays and calculation of specific activity were adapted from (Rasi et al., 2021; Rasi et al., 2022). Substrate Z-L-Lys-SBz1 hydrochloride (Sigma #C3647-25MG) was added to 96 well plates with a serial dilution between 19.5-2,500 μM. Assay buffer consisted of 50 mM Tris, 154 mM NaCl, pH 7.5 in presence of […] (5,5-dithio-bis-(2-nitrobenzoic acid) (DTNB) chromophore. 120 pM of protein was added to each well and substrate hydrolysis was quantified by measuring the absorbance at 405 nm.

Molecule	inhibition of mycobacterial growth in iMac-WT cells [1]	effect of monomeric GzmA on protective effects of GzmA-WT (mixing experiment) [2]	intracellular replication of pre-opsonized mycobacteria (excess protein removed) [2]	inhibition of intracellular mycobacterial replication (MGIA) [2]	colocalization between LAMP1 and BCG-GFP [3]	binding to CD14 (immunoprecipitation) (CD14)	binding to mycobacteria (mycobacteria BCG-GFP)	inhibition of intracellular Mtb (MGIA) [4]	binding to TLR4 (immunoprecipitation) (TLR4)	enzymatic (esterase) activity, cleavage of BLT [5]	GzmA inhibitory activity after CD14 neutralization (MGIA) [2]	GzmA inhibitory activity after TLR2 neutralization (MGIA) [2]	inhibition of intracellular Mtb (MGIA) ([4]; listed as recombinant enzymatically inactive GzmA)
GzmA-C93S: Granzyme A variant with cysteine 93 substituted with serine; forms only monomers, retains enzymatic activity (protein, left off: small tags and cut ends) IIGGNEVTPHSRPYMVLLSLDRKTICAGALIAKDWVLTAAHCNLNKRSQVILGAHSITREEPTKQIMLVKKEFPYPSYDPATREGDLKLLQLMEKAKINKYVTILHLPKKGDDVKPGTMCQVAGWGRTHNSASWSDTLREVNITIIDRKVCNDRNHYNFNPVIGMNMVCAGSLRGGRDSCNGDSGSPLLCEGVFRGVTSFGLENKCGDPRGPGVYILLSKKHLNWIIMTIKGAV	did not	partially inhibit the protective effects of GzmA-WT	cannot	loses its inhibitory activity	fails to direct mycobacteria into the phagolysosome	does not	able to bind mycobacteria	did not	does not	cleaved similar amounts of BLT as GzmA-WT			
GzmA-S195A (protein, left off: small tags and cut ends) IIGGNEVTPHSRPYMVLLSLDRKTICAGALIAKDWVLTAAHCNLNKRSQVILGAHSITREEPTKQIMLVKKEFPYPCYDPATREGDLKLLQLMEKAKINKYVTILHLPKKGDDVKPGTMCQVAGWGRTHNSASWSDTLREVNITIIDRKVCNDRNHYNFNPVIGMNMVCAGSLRGGRDSCNGDAGSPLLCEGVFRGVTSFGLENKCGDPRGPGVYILLSKKHLNWIIMTIKGAV	modestly inhibit mycobacterial growth			inhibits the intracellular replication of mycobacteria			bound mycobacteria	inhibited Mtb		loses its enzymatic activity	lost their inhibitory activity	does not reverse	very potent at protecting against Mtb intracellular infection
